The results in this text go back to article PMC2807882, “Conservation of DNA-binding specificity and oligomerisation properties within the p53 family”.

Holding throughout (details): protein: recombinant; tags: N-terminal 6xHis-lipoyl-TEV tag, cleaved; chain copies: 4; label: 5'-Alexa488
One data set addresses T1, p73CT (Homo sapiens, UniProt O15350 104-383).
T1 sequence: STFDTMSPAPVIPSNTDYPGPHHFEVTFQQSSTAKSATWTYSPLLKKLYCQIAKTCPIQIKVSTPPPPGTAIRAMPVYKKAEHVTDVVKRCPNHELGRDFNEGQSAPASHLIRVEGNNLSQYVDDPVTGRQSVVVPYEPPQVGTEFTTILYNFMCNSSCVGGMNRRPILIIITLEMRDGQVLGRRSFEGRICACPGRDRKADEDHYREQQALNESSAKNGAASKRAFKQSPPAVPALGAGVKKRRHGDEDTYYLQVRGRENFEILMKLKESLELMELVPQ
Description: fluorescence anisotropy direct titration; 25 mM sodium phosphate (purification buffer pH 7.2), 225 mM NaCl, 10% v/v glycerol, 5 mM DTT, 0.2 mg/mL BSA, 22 C.

The target in another data set is T2, Drp53 (Danio rerio, UniProt P79734 1-373).
T2 sequence: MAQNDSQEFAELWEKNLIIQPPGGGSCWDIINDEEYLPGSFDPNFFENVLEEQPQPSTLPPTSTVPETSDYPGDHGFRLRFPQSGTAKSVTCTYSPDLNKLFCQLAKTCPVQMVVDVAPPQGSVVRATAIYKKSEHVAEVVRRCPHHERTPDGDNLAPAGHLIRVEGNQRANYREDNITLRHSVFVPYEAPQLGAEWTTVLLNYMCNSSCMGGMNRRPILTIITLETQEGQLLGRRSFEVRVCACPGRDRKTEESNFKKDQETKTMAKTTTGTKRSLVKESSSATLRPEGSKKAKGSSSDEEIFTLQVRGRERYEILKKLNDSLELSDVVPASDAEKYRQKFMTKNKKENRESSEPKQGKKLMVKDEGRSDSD
As to the kind of experiment: fluorescence anisotropy, direct; 25 mM NaPi, 225 mM NaCl, 10% v/v glycerol, 5 mM DTT, 0.2 mg/mL BSA, 22°C; 20 nM labelled DNA; pH not stated for the binding assay.

In the next data set the target is T3, ΔNp63γ (Homo sapiens, UniProt Q9H3D4-6 1-393).
T3 sequence: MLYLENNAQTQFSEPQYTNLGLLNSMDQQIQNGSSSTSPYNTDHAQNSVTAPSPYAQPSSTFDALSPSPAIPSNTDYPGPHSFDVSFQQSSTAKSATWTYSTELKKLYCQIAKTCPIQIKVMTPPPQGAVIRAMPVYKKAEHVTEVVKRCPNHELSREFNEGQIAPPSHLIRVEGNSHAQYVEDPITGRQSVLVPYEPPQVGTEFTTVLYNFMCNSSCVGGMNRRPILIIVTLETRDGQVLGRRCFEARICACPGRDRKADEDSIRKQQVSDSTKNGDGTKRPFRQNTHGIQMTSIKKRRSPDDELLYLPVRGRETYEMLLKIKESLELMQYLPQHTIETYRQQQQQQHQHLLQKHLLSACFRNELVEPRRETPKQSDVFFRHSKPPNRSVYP
The description is as above.

The next data set concerns the target T4, ΔNp63α (Homo sapiens, UniProt Q9H3D4-2 1-586).
T4 sequence: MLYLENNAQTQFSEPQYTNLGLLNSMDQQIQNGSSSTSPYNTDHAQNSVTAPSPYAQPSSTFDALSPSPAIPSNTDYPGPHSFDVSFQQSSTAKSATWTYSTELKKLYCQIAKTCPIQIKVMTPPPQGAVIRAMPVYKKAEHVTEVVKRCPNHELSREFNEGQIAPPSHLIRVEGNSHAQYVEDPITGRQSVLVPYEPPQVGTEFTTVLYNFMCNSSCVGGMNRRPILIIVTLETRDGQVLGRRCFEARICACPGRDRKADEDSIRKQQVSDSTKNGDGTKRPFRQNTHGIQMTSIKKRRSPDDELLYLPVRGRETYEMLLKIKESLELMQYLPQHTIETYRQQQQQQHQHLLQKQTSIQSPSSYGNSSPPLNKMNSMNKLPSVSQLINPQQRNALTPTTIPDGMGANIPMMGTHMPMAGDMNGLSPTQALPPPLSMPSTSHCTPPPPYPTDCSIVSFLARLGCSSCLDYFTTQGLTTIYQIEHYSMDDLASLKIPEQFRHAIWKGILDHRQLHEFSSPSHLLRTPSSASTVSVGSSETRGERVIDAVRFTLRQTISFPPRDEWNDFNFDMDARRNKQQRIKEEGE
Described as above.

The target in the next data set is Hsp53 (Homo sapiens, UniProt P04637 1-393). The description is as above.
Chain of Hsp53 (P04637 whole entry): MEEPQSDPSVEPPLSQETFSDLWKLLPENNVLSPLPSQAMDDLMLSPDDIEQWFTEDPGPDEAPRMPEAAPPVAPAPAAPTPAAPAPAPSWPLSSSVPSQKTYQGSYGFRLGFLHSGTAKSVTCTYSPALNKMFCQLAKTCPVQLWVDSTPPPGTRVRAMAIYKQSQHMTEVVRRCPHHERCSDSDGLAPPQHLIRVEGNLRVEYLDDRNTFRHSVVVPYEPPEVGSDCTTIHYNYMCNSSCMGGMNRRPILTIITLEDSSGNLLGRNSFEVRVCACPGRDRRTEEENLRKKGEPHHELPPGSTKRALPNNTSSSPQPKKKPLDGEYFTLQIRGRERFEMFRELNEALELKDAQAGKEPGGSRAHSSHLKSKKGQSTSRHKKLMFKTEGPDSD
The target of another data set is T5, Dmp53 (Drosophila melanogaster, UniProt Q9N6D8 1-385).
T5 sequence: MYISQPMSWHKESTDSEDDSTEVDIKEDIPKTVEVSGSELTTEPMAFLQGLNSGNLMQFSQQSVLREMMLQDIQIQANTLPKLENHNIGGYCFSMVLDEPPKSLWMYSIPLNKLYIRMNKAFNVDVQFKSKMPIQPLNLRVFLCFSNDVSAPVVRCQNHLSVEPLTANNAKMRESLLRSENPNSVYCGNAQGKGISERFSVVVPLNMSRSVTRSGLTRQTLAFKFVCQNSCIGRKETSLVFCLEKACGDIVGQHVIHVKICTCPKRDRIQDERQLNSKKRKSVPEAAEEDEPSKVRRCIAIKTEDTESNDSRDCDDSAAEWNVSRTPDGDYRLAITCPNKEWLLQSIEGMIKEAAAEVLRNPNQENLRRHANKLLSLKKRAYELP
The description is as above.

A further data set has as its target Xlp53 (Xenopus laevis, UniProt Q7T1D0 1-362). The data set is described as above.

Chain of Xlp53 (Q7T1D0 entry or part of it): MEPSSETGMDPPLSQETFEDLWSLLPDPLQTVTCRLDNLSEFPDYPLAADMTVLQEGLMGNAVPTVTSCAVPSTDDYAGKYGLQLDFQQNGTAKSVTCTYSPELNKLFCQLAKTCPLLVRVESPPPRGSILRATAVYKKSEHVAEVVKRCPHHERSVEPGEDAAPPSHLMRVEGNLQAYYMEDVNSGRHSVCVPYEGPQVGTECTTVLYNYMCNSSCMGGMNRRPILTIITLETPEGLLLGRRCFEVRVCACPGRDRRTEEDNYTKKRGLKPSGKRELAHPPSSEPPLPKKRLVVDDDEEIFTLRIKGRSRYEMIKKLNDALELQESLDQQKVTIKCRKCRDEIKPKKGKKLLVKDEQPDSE

B1: Ref_Alexa488 (dsDNA)
DNA 1: GGACATGTCCGGACATGTCC
DNA 2: GGACATGTCCGGACATGTCC
B1: the Kd with p73CT is 240 nM; with Drp53 it was -7.2 ± 0.03 log10(M); with ΔNp63γ, -7.17 ± 0.02 log10(M); in the data set with ΔNp63α, -7.12 ± 0.01 log10(M); with Hsp53, -7.25 ± 0.03 log10(M); with Dmp53, -7.28 ± 0.03 log10(M). Further, the Kd in the data set with Xlp53 was -7.32 ± 0.02 log10(M).
